Experimental data from US20180251563A1 (SUBDOMAIN, published 2018).
Changes are numbered by the printed parent chain.

T1: CD123 (target of Example 19) (Homo sapiens (Human), UniProt P26951 19-305, limits assumed)
T1 sequence: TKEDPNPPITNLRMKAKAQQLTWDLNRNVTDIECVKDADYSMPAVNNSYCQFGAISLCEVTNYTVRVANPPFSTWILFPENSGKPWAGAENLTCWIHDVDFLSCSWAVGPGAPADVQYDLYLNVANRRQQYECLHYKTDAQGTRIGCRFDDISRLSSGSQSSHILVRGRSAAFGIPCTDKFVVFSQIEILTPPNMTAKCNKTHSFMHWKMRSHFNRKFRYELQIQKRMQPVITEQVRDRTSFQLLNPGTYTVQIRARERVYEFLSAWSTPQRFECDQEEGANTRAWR

B1: SEQ ID NO 69 (designed binder)
chain: MGSWWEFTDRLEAIEDRLWALGGSEAELAHFEDSIAQFEQELQWYKGKGNPEVEALADEADAIESELHAYRHN
B2: SEQ ID NO 72 (designed binder)
chain: MGSWEFFKEVLAEIKYDLEALGGSEAELAWFETDIAGFEIDLQVYKGKGNPEVEALRKEAAAIRDELQAYRHN
B3: SEQ ID NO 81 (designed binder)
chain: MGSWYIFKEDLAEIKEELEALGGSEAELAYFEEEIALFEMELQWYKGKGNPEVEALRKEAAAIRDELQAYRHN
B4: SEQ ID NO 75 (designed binder)
chain: MGSWVTFKDELADIKDFLEALGGSEAELAFFEVDIAEFEAELQFYKGKGNPEVEALRKEAAAIRDELQAYRHN
B5: SEQ ID NO 73 (designed binder)
chain: MGSWYDFKEDLADIKWMLEALGGSEAELAEFENVIAYFENDLQEYKGKGNPEVEALRKEAAAIRDELQAYRHN
B6: SEQ ID NO 67 (designed binder)
chain: MGSWSEFVDRLDAIFDRLWALGGSEAELAWFEDTIAHFEWNLQEYKGKGNPEVEALNGEADAITDELHAYRHN
B7: SEQ ID NO 80 (designed binder)
chain: MGSWQIFKGELAYIKQYLEALGGSEAELAFFEFDIAEFEEDLQYYKGKGNPEVEALRKEAAAIRDELQAYRHN
B8: SEQ ID NO 71 (designed binder)
chain: MGSWDHFKNDLAWIKKHLEALGGSEAELAEFEAVIAYFELYLQGYKGKGNPEVEALRKEAAAIRDELQAYRHN
B9: SEQ ID NO 68 (designed binder)
chain: MGSWWEFTDRLDAIFDRLWALGGSEAELAAFEESIAIFEQDLQYYKGKGNPEVEALEYEANAIQYELEAYRHN
B10: SEQ ID NO 74 (designed binder)
chain: MGSWSFFKDDLAEIKYFLEALGGSEAELAMFEQTIAEFEYDLQDYKGKGNPEVEALRKEAAAIRDELQAYRHN
B11: SEQ ID NO 70 (designed binder)
chain: MGSWEWFKSDLASIKWELEALGGSEAELAWFEHDIAEFEEDLQWYKGKGNPEVEALRKEAAAIRDELQAYRHN
B12: SEQ ID NO 77 (designed binder)
chain: B11 chain with E5W, W6E, S9E, S13E, E17F, E37K, E40F, D41E, W44Y
B13: SEQ ID NO 76 (designed binder)
chain: B11 chain with E5S, S9E, S13D, W16F, H33L, E37D, E40Q, D41A, W44Q
B14: SEQ ID NO 82 (designed binder)
chain: MGSWYYFKDELADIKWDLEALGGSEAELAWFEMLIAQFELDLQWYKGKGNPEVEALRKEAAAIRDELQAYRHN
B15: SEQ ID NO 78 (designed binder)
chain: MGSWDEFKEDLAHIKTDLEALGGSEAELALFEDEIADFEMYLQHYKGKGNPEVEALRKEAAAIRDELQAYRHN
B16: SEQ ID NO 66 (designed binder)
chain: MGSWEEFDKRLDAITRRLMALGGSEAELAEFESTIAWFEWDLQEYKGKGNPEVEALDWEAYAIDYELGAYRHN
B17: SEQ ID NO 79 (designed binder)
chain: MGSWFMFKEELADIKDWLEALGGSEAELASFESYIAWFEQDLQWYKGKGNPEVEALRKEAAAIRDELQAYRHN

Biological target: T1, CD123 (target of Example 19)
Assay: library selection; assay not described

binding result	Binder
binds	B1
binds	B2
binds	B3
binds	B4
binds	B5
binds	B6
binds	B7
binds	B8
binds	B9
binds	B10
binds	B11
binds	B12
binds	B13
binds	B14
binds	B15
binds	B16
binds	B17
